From PMC11724288, “Structural and kinetic insights into tRNA promoter engagement by yeast general transcription factor TFIIIC”

B1: 85-bp tRNAHis (dsDNA)
DNA 1: TGAAAAGTCGCCATCTTAGTATAGTGGTTAGTACACATCGTTGTGGCCGATGAAACCCTGGTTCGATTCTAGGAGATGGCATTTT
DNA 2: AAAATGCCATCTCCTAGAATCGAACCAGGGTTTCATCGGCCACAACGATGTGTACTAACCACTATACTAAGATGGCGACTTTTCA
B2: mA/B (EMSA) (dsDNA)
DNA 1: TCCATTGAAAAGTCGCCATCTAACTATTGTCGTTAGTACACATCGTTGTGGCCGATGAAACCCTGGTTCGATTCTAGGAGATGGCATTTT
DNA 2: AAAATGCCATCTCCTAGAATCGAACCAGGGTTTCATCGGCCACAACGATGTGTACTAACGACAATAGTTAGATGGCGACTTTTCAATGGA

Key:
[1] = target: T1, TFIIICΔtail (τ138, τ131, τ95Δtail, τ91, τ60, τ55) (Saccharomyces cerevisiae, UniProt P34111;P33339;P32367;Q06339;Q12308;Q12415 1-1160;1-1025;1-593;1-672;1-588;1-435); experiment: filter binding; 150 mM KCl, 4 C, apparent Kd, Hill coefficient 1, N=1; Buffer FB: 20 mM HEPES pH 7.5, 150 mM KCl, 2 mM MgCl2, 5 mM DTT; filter binding 1 h at 4 C; EMSA 20 min RT with 1 ug poly-dI/dC, gel at 4 C; footprint 30 min RT, DNase I 28 C; conditions: protein: recombinant; copies: 1;1;1;1;1;1; blunt
[2] = target: T1, TFIIICΔtail (τ138, τ131, τ95Δtail, τ91, …); experiment: EMSA; not significantly changed versus A/B; 100-900 nM protein; Buffer FB: 20 mM HEPES pH 7.5, 150 mM KCl, 2 mM MgCl2, 5 mM DTT; filter binding 1 h at 4 C; EMSA 20 min RT with 1 ug poly-dI/dC, gel at 4 C; footprint 30 min RT, DNase I 28 C; conditions: protein: recombinant; copies: 1;1;1;1;1;1; label: 32P

Binder	Kd [1] [nM]	binding result [2]
B1	30 ± 1	–
B2	–	binds
